Key:
[1] = Ca2+-responsive mFAP Ca2+ titrations; format: binding
Description: In measuring Ca^2+ affinity of mFAPs on a Synergy Neo2 hybrid multi-mode reader (Fig. 4d, e, f and Supplementary Figs. 10c, f, i, 11c, f, i, 13c, f, i, 16b), large-scale purified proteins[49] were aliquoted in technical triplicate to a final concentration of 500 nM with 5.00 μM DFHBI in eleven serial dilutions ( 10 dilution factor) of CaCl2 (Sigma Aldrich) starting from either 900 mM or 90.0 mM CaCl2 (diluted using high-salt Tev cleavage buffer) including a twelfth condition without CaCl2. Final volumes were 200 μL in flat bottom, black polystyrene, non-binding surface 96-well microplates (Corning 3650). Fluorescence endpoints were measured using excitation wavelength λex = 484 nm and emission wavelength λem = 508 nm. Background fluorescence endpoints of wells with identical chromophore and CaCl2 concentrations lacking protein (substituted for equivalent volumes of high-salt Tev cleavage buffer) were measured in technical triplicate, averaged per condition, and subtracted from protein measurement averages of the same conditions.
For Ca^2+ titrations of EF4n_mFAP2a and EF4n_mFAP2b (Supplementary Fig. 13c), a small amount of Chelex 100 sodium form (Sigma Aldrich) was added to purified protein (produced by large-scale protein purification and SEC purification[49]) and nutated at 4 °C overnight. EF4n_mFAP2a was aliquoted in technical triplicate to a final concentration of 8.00 μM with 80.0 μM DFHBI and EF4n_mFAP2b was aliquoted in technical triplicate to a final concentration of 6.25 μM with 43.4 μM DFHBI, in eleven serial dilutions ( 10 dilution factor) of CaCl2 starting from 9.00 mM or 4.00 mM CaCl2 (diluted using high-salt Tev cleavage buffer pre-treated with Chelex 100) including a twelfth condition without CaCl2. Final volumes were 25.0 μL in flat bottom, black polystyrene, non-binding surface 96-well half-area microplates (Corning 3686) or 200 μL in flat bottom, black polystyrene, non-binding surface 96-well microplates (Corning 3650). Fluorescence endpoints were measured for EF4n_mFAP2a using excitation wavelength λex = 478 nm and emission wavelength λem = 520 nm, and for EF4n_mFAP2b using excitation wavelength λex = 484 nm and emission wavelength λem = 508 nm. Background fluorescence endpoints of wells with identical chromophore and CaCl2 concentrations lacking protein (substituted for equivalent volumes of high-salt Tev cleavage buffer) were measured in technical triplicate, averaged per condition, and subtracted from protein measurement averages of the same conditions. For non-linear least squares fitting to obtain Kd values, means were fit to a single-binding site isotherm function where Ca^2+-binding sites were modeled independently with a Hill coefficient of 1.

[2] = test system: human induced pluripotent stem cell (hiPSC)-derived cardiomyocytes; assay: Contraction and SR Ca2+ transient imaging of cardiomyocytes; format: cell-based; settings: SR-targeted; image acquisition ~16.7 Hz
Description: hiPSC culture and cardiomyocyte differentiation: Undifferentiated IMR90 human induced pluripotent stem cells (hiPSCs) (WiCell) were maintained in mTeSR-1 (StemCell Technologies) on tissue culture plastic coated with Matrigel diluted 1:60 (Corning) at 37 °C and 5% CO2. Cardiomyocytes were differentiated using a monolayer-based directed differentiation protocol. hiPSCs were dissociated into a single cell suspension using Versene (Life Technologies) and plated at a high density (1.5–2.5·10^5 cells cm^−2) in mTeSR containing 10 µM Y-27632 ROCK inhibitor onto Matrigel-coated plates. Twenty-four hours after plating, media was replaced with fresh mTeSR. […]
Contraction and SR Ca^2+ transient imaging: Leica DMI8 microscope controlled by MetaMorph Imaging software was used to image contraction and Ca^2+ transients of the SR in CMs. […] For mapping contraction, three different ROI traces were hand-drawn, and displacement of cells were measured in the fluorescence channel. […] In order to quantify tissue-level Ca^2+ fluxes during cardiac contraction cycling, fluorescence fold-change over the whole field of view was calculated for each frame then temporally matched with contraction data. Fluorescence fold-change in each frame was calculated by Eq. (11) where F is the fluorescence per frame, and F0 is the fluorescence of the frame with the minimum fluorescence (Fig. 5f and Supplementary Fig. 19b). […]

[3] = Circular dichroism; format: physicochemical; settings: absence of DFHBI
Description: Circular dichroism (CD) measurements were recorded at 25 °C in a 1 mm cuvette on an AVIV model 420 CD spectrometer (Biomedical, Inc.). mFAP2 and mFAP2.1 were purified by large-scale protein purification and SEC purification[49] in phosphate-buffered saline (PBS) (25.0 mM phosphate, 150 mM NaCl, pH 7.40), and far-ultraviolet CD wavelength scans recorded from 195 nm to 260 nm. mFAP2 was measured at 0.441 mg mL^−1 and mFAP2.1 at 0.500 mg mL^−1 in Na2HPO4-citrate buffer with pH adjusted to 7.75, 3.96, or 2.93 using NaOH and HCl. The reported data was background-subtracted using buffer only contols (Supplementary Fig. 1b, c).

[4] = pH-sensitivity of β-barrel variants (fluorescence ratio fold-change pH 3.66-7.36); format: biochemical
Description: In measuring pH-sensitivity of β-barrel variants (Supplementary Fig. 1f) in technical triplicate, 140 μL of Na2HPO4-citrate (pH 7.36 or 3.66) supplemented with 150 mM NaCl and 1.43 μM DFHBI was combined with 10.0 μL of small-scale purified protein[49] for a final concentration of 1.33 μM DFHBI. Fluorescence endpoints were measured by exciting at λex = 387 nm or λex = 483 nm and measuring fluorescence emission at λem = 501 nm or λem = 504 nm, respectively. Without background subtraction, the fluorescence ratio fold-change from pH 3.66–7.36 was calculated as:2 FluorescenceRatioFold-ChangepH3.66-7.36=FpH3.66λex=387nm,λem=501nm/FpH3.66λex=483nm,λem=504nm/FpH7.36λex=387nm,λem=501nm/FpH7.36λex=483nm,λem=504nm, where FpHλex,λem is the mean of three technical replicates of endpoint fluorescence measurements at the subscripted pH value and superscripted fluorescence excitation (λex) and fluorescence emission (λem) wavelengths.

[5] = Fluorescence intensity of circularly permuted mFAP2a variants; format: biochemical; settings: equimolar concentration
Description: To measure the fluorescence intensities of circularly permuted mFAP2a variants (Supplementary Fig. 22b, d), fluorescence endpoints were measured on a Synergy Neo2 hybrid multi-mode reader (BioTek) in flat bottom, black polystyrene, non-binding surface 96-well microplates (Corning 3650) or half-area microplates (Corning 3686). Fluorescence endpoints were measured in technical triplicate by exciting at λex = 488 nm and measuring fluorescence emission at λem = 510 nm (Supplementary Fig. 22b), or exciting at λex = 468 nm and measuring fluorescence emission at λem = 530 nm (Supplementary Fig. 22d). […]

B1: EF1n_mFAP2b: negatively allosteric Ca2+-responsive mFAP, one EF-hand motif (protein)
chain: SRAAQLLPGTWQVTMTNEDGQTSQGQWHFQPRSPYTMDIVAQGTISDGRPIVGYGKATVKTPDTLDIDITYPSLGNIKAQGQITMDSPTQFKWDAHVDKDGDGYISAAEAAAQTKILTGTLQRQE
For B1, the “Ca2+-responsiveness / allostery between DFHBI and Ca2+ binding” value ([1]; Ca2+ titration with excess DFHBI) was “negative allostery”, the Kd ([1]; excess DFHBI compared to protein, Hill coefficient of 1) was 260 µM and the “response time to Ca2+ fluxes” value [2] was “less than 60 ms”.

B2: mFAP2.1: mFAP2 mutational variant (protein)
chain: SRAAQLLPGTWQVTMTNEDGQTSQGQMHFQPRSPYTMDVVAQGTISDGRTIVGYGKVTVKTPDTLDVDITYPSLGNIKAQGQITMDSPTQFKFDATTKGAGNFTGRLTGTLQRQE
In the case of B2, the “stability by circular dichroism compared to mFAP2” value [3] is reported as “improved stability at pH 2.93”.

B3: mFAP2.2: most pH-responsive mutant of SDM library (protein)
chain: SRAAQLLPGTWQVTMTNEDGQTSQGQMHFQPRSPYTMDVVAQGTISDGRPIVGYGKVTVKTPDTLDVDITYPSLGNIKAQGQITMDSPTQFKFDATTKGAGNFTGRLTGTLQRQE
For B3, the “fluorescence ratio fold-change from pH 3.66–7.36, higher than mFAP2.1” value [4] was ~ 1.3 fold.

B4: cp35-34_mFAP2a_12: brightest cpmFAP tested, de novo designed α-helical linker (protein)
chain: QEMDIVAQGTISDGRPIVGYGKATVKTPDTLDIDITYPSLGNIKAQGQITMDSPTQFKWDATTKGENDFHGRLTGTLQRTEEAKEATEEARRRGITTQAAQLLPGTWQATFTNEDGQTSQGQWHFQPRDG
In the case of B4, the “fluorescence intensity relative to mFAP2a” value [5] is reported as ~ 93%.
